Laboratory results: patent US20180298070A1, “PEPTIDE COMPOUND” (Takeda Pharmaceutical Company Limited, published 2018)
Non-standard residues stand in square brackets, D forms with d. No end group written: not given here. Aib = CC(C)(N)C(=O)O

Legend:
human GLP-1R [1] = target: human GLP-1R (human, UniProt P43220); experiment: cell-based or functional assay
human GLP-1R [2] = target: human GLP-1R (human, UniProt P43220); experiment: cell-based or functional assay; remark: listed apart in the source

Binder	Agonist activity (EC50, M) (human GLP-1R [1]) [M]	Agonist activity (EC50, M) (human GLP-1R [2]) [M]
Y[Aib]EGTVKSDYSILLDKQAQ[Aib]EFVKWLLKGGPSSGAPPPSK-NH2 (N-terminus assumed; SMILES CC[C@H](C)[C@H](NC(=O)[C@H](CO)NC(=O)[C@H](Cc1ccc(O)cc1)NC(=O)[C@H](CC(=O)O)NC(=O)[C@H](CO)NC(=O)[C@H](CCCCN)NC(=O)[C@@H](NC(=O)[C@@H](NC(=O)CNC(=O)[C@H](CCC(=O)O)NC(=O)C(C)(C)NC(=O)[C@@H](N)Cc1ccc(O)cc1)[C@@H](C)O)C(C)C)C(=O)N[C@@H](CC(C)C)C(=O)N[C@@H](CC(C)C)C(=O)N[C@@H](CC(=O)O)C(=O)N[C@@H](CCCCN)C(=O)N[C@@H](CCC(N)=O)C(=O)N[C@@H](C)C(=O)N[C@@H](CCC(N)=O)C(=O)NC(C)(C)C(=O)N[C@@H](CCC(=O)O)C(=O)N[C@@H](Cc1ccccc1)C(=O)N[C@H](C(=O)N[C@@H](CCCCN)C(=O)N[C@@H](Cc1c[nH]c2ccccc12)C(=O)N[C@@H](CC(C)C)C(=O)N[C@@H](CC(C)C)C(=O)N[C@@H](CCCCN)C(=O)NCC(=O)NCC(=O)N1CCC[C@H]1C(=O)N[C@@H](CO)C(=O)N[C@@H](CO)C(=O)NCC(=O)N[C@@H](C)C(=O)N1CCC[C@H]1C(=O)N1CCC[C@H]1C(=O)N1CCC[C@H]1C(=O)N[C@@H](CO)C(=O)N[C@@H](CCCCN)C(N)=O)C(C)C) [Compound 10]	> 1e-06	
Y[Aib]EGTVVSFYSI[Aib]LDKQAQ[Aib]EFVKWLLKGGPSSGAPPPSK-NH2 (N-terminus assumed; SMILES CC[C@H](C)[C@H](NC(=O)[C@H](CO)NC(=O)[C@H](Cc1ccc(O)cc1)NC(=O)[C@H](Cc1ccccc1)NC(=O)[C@H](CO)NC(=O)[C@@H](NC(=O)[C@@H](NC(=O)[C@@H](NC(=O)CNC(=O)[C@H](CCC(=O)O)NC(=O)C(C)(C)NC(=O)[C@@H](N)Cc1ccc(O)cc1)[C@@H](C)O)C(C)C)C(C)C)C(=O)NC(C)(C)C(=O)N[C@@H](CC(C)C)C(=O)N[C@@H](CC(=O)O)C(=O)N[C@@H](CCCCN)C(=O)N[C@@H](CCC(N)=O)C(=O)N[C@@H](C)C(=O)N[C@@H](CCC(N)=O)C(=O)NC(C)(C)C(=O)N[C@@H](CCC(=O)O)C(=O)N[C@@H](Cc1ccccc1)C(=O)N[C@H](C(=O)N[C@@H](CCCCN)C(=O)N[C@@H](Cc1c[nH]c2ccccc12)C(=O)N[C@@H](CC(C)C)C(=O)N[C@@H](CC(C)C)C(=O)N[C@@H](CCCCN)C(=O)NCC(=O)NCC(=O)N1CCC[C@H]1C(=O)N[C@@H](CO)C(=O)N[C@@H](CO)C(=O)NCC(=O)N[C@@H](C)C(=O)N1CCC[C@H]1C(=O)N1CCC[C@H]1C(=O)N1CCC[C@H]1C(=O)N[C@@H](CO)C(=O)N[C@@H](CCCCN)C(N)=O)C(C)C) [Compound 7]	> 1e-06	
YXEGTXISDYSIXLDRXHQXNFVNWXLAQRPSSGAPPPS (N-methyl on Tyr1 (Me-Tyr); Aib at 2, 13, 20; Iva at 6, 26; Lys(Oda-GGGGG-) at 17; C-terminal NH2) [Compound 491]		> 1e-06
YXEGTXISDYSIXLDRXAQXNFVNWXLAQRPSSGAPPPS (N-methyl on Tyr1 (Me-Tyr); Aib at 2, 13, 20; Iva at 6, 26; Lys(Oda-GGGGGG-) at 17; C-terminal NH2) [Compound 496]		> 1e-06
YXEGTXISDYSIXLDRXHQXNFVNWXLAQRPSSGAPPPS (N-methyl on Tyr1 (Me-Tyr); Aib at 2, 13, 20; Iva at 6, 26; Lys(Heda-GGGGGG-) at 17; C-terminal NH2) [Compound 503]		> 1e-06
YXEGTXISDYSIXLDRXAQXNFVNWXLAQRPSSGAPPPS (N-methyl on Tyr1 (Me-Tyr); Aib at 2, 13, 20; Iva at 6, 26; Lys(Heda-GGGGGG-) at 17; C-terminal NH2) [Compound 494]		> 1e-06
YXEGTXISDYSIXXDRXHQXNFVNWXLAQRPSSGAPPPS (N-methyl on Tyr1 (Me-Tyr); Aib at 2, 13, 17, 20; Iva at 6, 26; Lys(Hepda-GGGGG-) at 14; C-terminal NH2) [Compound 508]		> 1e-06
YXEGTXISDYSIXLDRXHQXNFVNWXLAQRPSSGAPPPS (N-methyl on Tyr1 (Me-Tyr); Aib at 2, 13, 20; Iva at 6, 26; Lys(Eda-GGGGG-) at 17; C-terminal NH2) [Compound 493]		> 1e-06
YXEGTXISDYSIXXDRXHQXNFVNWXLAQRPSSGAPPPS (N-methyl on Tyr1 (Me-Tyr); Aib at 2, 13, 17, 20; Iva at 6, 26; Lys(Eda-GGGGGG-) at 14; C-terminal NH2) [Compound 521]		> 1e-06
YXEGTXISDYSIXLDRXAQXNFVNWXLAQRPSSGAPPPS (N-methyl on Tyr1 (Me-Tyr); Aib at 2, 13, 20; Iva at 6, 26; Lys(Hepda-GGGGGG-) at 17; C-terminal NH2) [Compound 495]		> 1e-06
YXEGTXISDYSIXLDRXHQXNFVNWXLAQRPSSGAPPPS (N-methyl on Tyr1 (Me-Tyr); Aib at 2, 13, 20; Iva at 6, 26; Lys(Oda-GGGGGG-) at 17; C-terminal NH2) [Compound 492]		> 1e-06
YXEGTXISDYSIXLDRXHQXNFVNWXLAQRPSSGAPPPS (N-methyl on Tyr1 (Me-Tyr); Aib at 2, 13, 20; Iva at 6, 26; Lys(Hepda-GGGGG-) at 17; C-terminal NH2) [Compound 502]		> 1e-06
YXEGTXISDYSIXLDRXHQXNFVNWXLAQRPSSGAPPPS (N-methyl on Tyr1 (Me-Tyr); Aib at 2, 13, 20; Iva at 6, 26; Lys(Hepda-GGGGGG-) at 17; C-terminal NH2) [Compound 504]		> 1e-06
YXEGTXISDYSIXXDRXHQXNFVNWXLAQRPSSGAPPPS (N-methyl on Tyr1 (Me-Tyr); Aib at 2, 13, 17, 20; Iva at 6, 26; Lys(Heda-GGGGG-) at 14; C-terminal NH2) [Compound 507]		> 1e-06
YXEGTXISDYSIXXDRXHQXNFVNWXLAQRPSSGAPPPS (N-methyl on Tyr1 (Me-Tyr); Aib at 2, 13, 17, 20; Iva at 6, 26; Lys(Heda-GGGGGG-) at 14; C-terminal NH2) [Compound 509]		> 1e-06
YXEGTXISDYSIXXDRXHQXNFVNWXLAQRPSSGAPPPS (N-methyl on Tyr1 (Me-Tyr); Aib at 2, 13, 17, 20; Iva at 6, 26; Lys(Hepda-GGGGGG-) at 14; C-terminal NH2) [Compound 510]		> 1e-06
Y[Aib]EGTVVSLYSI[Aib]LDKQAQ[Aib]EFVKW[Aib]LKGGPSSGAPPPSK-NH2 (N-terminus assumed; SMILES CC[C@H](C)[C@H](NC(=O)[C@H](CO)NC(=O)[C@H](Cc1ccc(O)cc1)NC(=O)[C@H](CC(C)C)NC(=O)[C@H](CO)NC(=O)[C@@H](NC(=O)[C@@H](NC(=O)[C@@H](NC(=O)CNC(=O)[C@H](CCC(=O)O)NC(=O)C(C)(C)NC(=O)[C@@H](N)Cc1ccc(O)cc1)[C@@H](C)O)C(C)C)C(C)C)C(=O)NC(C)(C)C(=O)N[C@@H](CC(C)C)C(=O)N[C@@H](CC(=O)O)C(=O)N[C@@H](CCCCN)C(=O)N[C@@H](CCC(N)=O)C(=O)N[C@@H](C)C(=O)N[C@@H](CCC(N)=O)C(=O)NC(C)(C)C(=O)N[C@@H](CCC(=O)O)C(=O)N[C@@H](Cc1ccccc1)C(=O)N[C@H](C(=O)N[C@@H](CCCCN)C(=O)N[C@@H](Cc1c[nH]c2ccccc12)C(=O)NC(C)(C)C(=O)N[C@@H](CC(C)C)C(=O)N[C@@H](CCCCN)C(=O)NCC(=O)NCC(=O)N1CCC[C@H]1C(=O)N[C@@H](CO)C(=O)N[C@@H](CO)C(=O)NCC(=O)N[C@@H](C)C(=O)N1CCC[C@H]1C(=O)N1CCC[C@H]1C(=O)N1CCC[C@H]1C(=O)N[C@@H](CO)C(=O)N[C@@H](CCCCN)C(N)=O)C(C)C) [Compound 42]	> 1e-06	
Y[Aib]EGTVKSDYSI[Aib]LDKQAQ[Aib]EFVKWLLKGGPSSGAPPPSK-NH2 (N-terminus assumed; SMILES CC[C@H](C)[C@H](NC(=O)[C@H](CO)NC(=O)[C@H](Cc1ccc(O)cc1)NC(=O)[C@H](CC(=O)O)NC(=O)[C@H](CO)NC(=O)[C@H](CCCCN)NC(=O)[C@@H](NC(=O)[C@@H](NC(=O)CNC(=O)[C@H](CCC(=O)O)NC(=O)C(C)(C)NC(=O)[C@@H](N)Cc1ccc(O)cc1)[C@@H](C)O)C(C)C)C(=O)NC(C)(C)C(=O)N[C@@H](CC(C)C)C(=O)N[C@@H](CC(=O)O)C(=O)N[C@@H](CCCCN)C(=O)N[C@@H](CCC(N)=O)C(=O)N[C@@H](C)C(=O)N[C@@H](CCC(N)=O)C(=O)NC(C)(C)C(=O)N[C@@H](CCC(=O)O)C(=O)N[C@@H](Cc1ccccc1)C(=O)N[C@H](C(=O)N[C@@H](CCCCN)C(=O)N[C@@H](Cc1c[nH]c2ccccc12)C(=O)N[C@@H](CC(C)C)C(=O)N[C@@H](CC(C)C)C(=O)N[C@@H](CCCCN)C(=O)NCC(=O)NCC(=O)N1CCC[C@H]1C(=O)N[C@@H](CO)C(=O)N[C@@H](CO)C(=O)NCC(=O)N[C@@H](C)C(=O)N1CCC[C@H]1C(=O)N1CCC[C@H]1C(=O)N1CCC[C@H]1C(=O)N[C@@H](CO)C(=O)N[C@@H](CCCCN)C(N)=O)C(C)C) [Compound 8]	> 1e-06	
Y[Aib]EGTVVSLYSI[Aib]LDKQAQ[Aib]EFVKWLLKGGPSSGAPPPSK-NH2 (N-terminus assumed; SMILES CC[C@H](C)[C@H](NC(=O)[C@H](CO)NC(=O)[C@H](Cc1ccc(O)cc1)NC(=O)[C@H](CC(C)C)NC(=O)[C@H](CO)NC(=O)[C@@H](NC(=O)[C@@H](NC(=O)[C@@H](NC(=O)CNC(=O)[C@H](CCC(=O)O)NC(=O)C(C)(C)NC(=O)[C@@H](N)Cc1ccc(O)cc1)[C@@H](C)O)C(C)C)C(C)C)C(=O)NC(C)(C)C(=O)N[C@@H](CC(C)C)C(=O)N[C@@H](CC(=O)O)C(=O)N[C@@H](CCCCN)C(=O)N[C@@H](CCC(N)=O)C(=O)N[C@@H](C)C(=O)N[C@@H](CCC(N)=O)C(=O)NC(C)(C)C(=O)N[C@@H](CCC(=O)O)C(=O)N[C@@H](Cc1ccccc1)C(=O)N[C@H](C(=O)N[C@@H](CCCCN)C(=O)N[C@@H](Cc1c[nH]c2ccccc12)C(=O)N[C@@H](CC(C)C)C(=O)N[C@@H](CC(C)C)C(=O)N[C@@H](CCCCN)C(=O)NCC(=O)NCC(=O)N1CCC[C@H]1C(=O)N[C@@H](CO)C(=O)N[C@@H](CO)C(=O)NCC(=O)N[C@@H](C)C(=O)N1CCC[C@H]1C(=O)N1CCC[C@H]1C(=O)N1CCC[C@H]1C(=O)N[C@@H](CO)C(=O)N[C@@H](CCCCN)C(N)=O)C(C)C) [Compound 6]	> 1e-06	
YXEGTXISDYSIXXDRXAQXNFVNWXLAQRPSSGAPPPSR (N-methyl on Tyr1 (Me-Tyr); Aib at 2, 13, 17, 20; Iva at 6, 26; Lys(Hepda-GGGGGG-) at 14; C-terminal NH2) [Compound 506]		> 1e-06
YXEGTXISDYSIXXDRXAQXNFVNWXLAQRPSSGAPPPSR (N-methyl on Tyr1 (Me-Tyr); Aib at 2, 13, 17, 20; Iva at 6, 26; Lys(Eda-GGGGGG-) at 14; C-terminal NH2) [Compound 520]		> 1e-06
YXEGTFISDYSIAXDRXHQXNFVNWXLAQRPSSGAPPPSR (not fully specified; N-methyl on Tyr1 (Me-Tyr); Aib at 2, 13, 17, 20; Iva at 6, 26; Lys(Eda-GGGGGG-) at 14; C-terminal NH2) [Compound 522]		> 1e-06
